From the supplement of paper PMC10567573

B1: SASS6 (parent)
chain: QKELQDVGQSLRIKEQEVCKLQEQ

Variants of: B1
Test: protein stability index of a GFP-peptide fusion (GPS, HEK-293T) (PSI 1-6); higher = more stable
Settings: c terminus: a fixed tail appended
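Further: lentivirally expressed fusions sorted by FACS into six bins by GFP to DsRed ratio, PSI derived from sequencing read proportions per bin multiplied by bin number.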

Variant	protein stability index
QKELQDQGQSLRIKEQEVCKLQEQ	5.82
QKELQDRGQSLRIKEQEVCKLQEQ	5.39
QKELQDSGQSLRIKEQEVCKLQEQ	5.76
QKELQDTGQSLRIKEQEVCKLQEQ	5.68
QKELQDWGQSLRIKEQEVCKLQEQ	4.64
QKELQDYGQSLRIKEQEVCKLQEQ	5.18
QKELQDVAQSLRIKEQEVCKLQEQ	3.61
QKELQDVCQSLRIKEQEVCKLQEQ	4.92
QKELQDVDQSLRIKEQEVCKLQEQ	5.26
QKELQDVEQSLRIKEQEVCKLQEQ	5.38
QKELQDVFQSLRIKEQEVCKLQEQ	4.07
QKELQDVHQSLRIKEQEVCKLQEQ	5
QKELQDVIQSLRIKEQEVCKLQEQ	4
QKELQDVKQSLRIKEQEVCKLQEQ	5.2
QKELQDVLQSLRIKEQEVCKLQEQ	3.83
QKELQDVMQSLRIKEQEVCKLQEQ	4.98
QKELQDVNQSLRIKEQEVCKLQEQ	5.12
QKELQDVPQSLRIKEQEVCKLQEQ	4.75
QKELQDVRQSLRIKEQEVCKLQEQ	5.48
QKELQDVSQSLRIKEQEVCKLQEQ	5
QKELQDVTQSLRIKEQEVCKLQEQ	5.13
QKELQDVVQSLRIKEQEVCKLQEQ	4.69
QKELQDVWQSLRIKEQEVCKLQEQ	3.84
QKELQDVYQSLRIKEQEVCKLQEQ	4.18

Variant	protein stability index
QKELQDVGASLRIKEQEVCKLQEQ	5.52
QKELQDVGCSLRIKEQEVCKLQEQ	4.76
QKELQDVGDSLRIKEQEVCKLQEQ	5.71
QKELQDVGESLRIKEQEVCKLQEQ	4.49
QKELQDVGFSLRIKEQEVCKLQEQ	4.13
QKELQDVGGSLRIKEQEVCKLQEQ	5.02
QKELQDVGHSLRIKEQEVCKLQEQ	5.05
QKELQDVGISLRIKEQEVCKLQEQ	4.97
QKELQDVGKSLRIKEQEVCKLQEQ	5.3
QKELQDVGLSLRIKEQEVCKLQEQ	4.84
QKELQDVGMSLRIKEQEVCKLQEQ	4.67
QKELQDVGNSLRIKEQEVCKLQEQ	5.67
QKELQDVGPSLRIKEQEVCKLQEQ	5.56
QKELQDVGRSLRIKEQEVCKLQEQ	5.1
QKELQDVGSSLRIKEQEVCKLQEQ	4.47
QKELQDVGTSLRIKEQEVCKLQEQ	5.23
QKELQDVGYSLRIKEQEVCKLQEQ	4.87
QKELQDVGQALRIKEQEVCKLQEQ	5
QKELQDVGQCLRIKEQEVCKLQEQ	4.12
QKELQDVGQDLRIKEQEVCKLQEQ	3.74
QKELQDVGQELRIKEQEVCKLQEQ	5.72
QKELQDVGQFLRIKEQEVCKLQEQ	4.91
QKELQDVGQGLRIKEQEVCKLQEQ	4.74
QKELQDVGQHLRIKEQEVCKLQEQ	4.89

Variant	protein stability index
QKELQDVGQILRIKEQEVCKLQEQ	3.83
QKELQDVGQKLRIKEQEVCKLQEQ	5.1
QKELQDVGQLLRIKEQEVCKLQEQ	5
QKELQDVGQMLRIKEQEVCKLQEQ	5.33
QKELQDVGQPLRIKEQEVCKLQEQ	4.37
QKELQDVGQQLRIKEQEVCKLQEQ	5.31
QKELQDVGQTLRIKEQEVCKLQEQ	5.48
QKELQDVGQVLRIKEQEVCKLQEQ	3.9
QKELQDVGQWLRIKEQEVCKLQEQ	2.66
QKELQDVGQYLRIKEQEVCKLQEQ	4.32
QKELQDVGQSARIKEQEVCKLQEQ	5.25
QKELQDVGQSCRIKEQEVCKLQEQ	5.09
QKELQDVGQSDRIKEQEVCKLQEQ	5.75
QKELQDVGQSERIKEQEVCKLQEQ	5.84
QKELQDVGQSFRIKEQEVCKLQEQ	5.26
QKELQDVGQSGRIKEQEVCKLQEQ	5.88
QKELQDVGQSHRIKEQEVCKLQEQ	5.36
QKELQDVGQSIRIKEQEVCKLQEQ	5.39
QKELQDVGQSKRIKEQEVCKLQEQ	5.12
QKELQDVGQSMRIKEQEVCKLQEQ	5.6
QKELQDVGQSNRIKEQEVCKLQEQ	5.77
QKELQDVGQSPRIKEQEVCKLQEQ	5.37
QKELQDVGQSQRIKEQEVCKLQEQ	5.54
QKELQDVGQSSRIKEQEVCKLQEQ	5.47

Variant	protein stability index
QKELQDVGQSTRIKEQEVCKLQEQ	5.67
QKELQDVGQSVRIKEQEVCKLQEQ	5.39
QKELQDVGQSWRIKEQEVCKLQEQ	5.11
QKELQDVGQSYRIKEQEVCKLQEQ	5.21
QKELQDVGQSLAIKEQEVCKLQEQ	5.34
QKELQDVGQSLCIKEQEVCKLQEQ	4.81
QKELQDVGQSLDIKEQEVCKLQEQ	4.03
QKELQDVGQSLEIKEQEVCKLQEQ	5.71
QKELQDVGQSLFIKEQEVCKLQEQ	5.02
QKELQDVGQSLGIKEQEVCKLQEQ	5.6
QKELQDVGQSLHIKEQEVCKLQEQ	5.41
QKELQDVGQSLIIKEQEVCKLQEQ	5.14
QKELQDVGQSLKIKEQEVCKLQEQ	5.55
QKELQDVGQSLLIKEQEVCKLQEQ	5.33
QKELQDVGQSLNIKEQEVCKLQEQ	5.19
QKELQDVGQSLPIKEQEVCKLQEQ	5.39
QKELQDVGQSLQIKEQEVCKLQEQ	5.75
QKELQDVGQSLSIKEQEVCKLQEQ	5.34
QKELQDVGQSLTIKEQEVCKLQEQ	3.75
QKELQDVGQSLWIKEQEVCKLQEQ	4.84
QKELQDVGQSLYIKEQEVCKLQEQ	5.28
QKELQDVGQSLRAKEQEVCKLQEQ	4.69
